Assay [1] has as its system INS-1 832/13 cells (a pancreatic β-cell line). Put plainly: Reduced MEROS-GFP by FACS in INS-1 832/13 cells in high glucose with soluble MANF. It counts as cell-based, rat. The settings on record: 25 mM glucose; 0.5 μg/mL soluble MANF (48 hours per FIG. 45). As to the method: FIG. 45 is a graph of fluorescence-assisted cell sorting data showing the percentage of INS1 832/13 cells (pancreatic (3 cell line) containing the reduced form of EroGFP in the endoplasmic reticulum following culture in 11 mM glucose or 25 mM glucose (24 hours) (top panels and bottom panels, respectively), and treatment with 0 or 0.5 μg/mL soluble MANF for 48 hours (left panels and right panels, respectively). The cells were excited using a wavelength at 473 nm and an emission spectrum of 510 nm.
Further experiments were performed to determine whether soluble MANF can prevent fluctuations in the redox environment in the endoplasmic reticulum of pancreatic β-cells upon exposure to an agent that induces endoplasmic reticulum stress. Experiments were performed using INS-1 832/13 cells (a pancreatic β-cell line) transfected with a lentivirus vector expressing MEROS-GFP. The cells were cultured in 11 mM or 25 mM glucose, and either left untreated or treated with 0.5 μg/mL soluble MANF. The cells were then analyzed using FACS analysis using an excitation spectrum between 460-495 nm and an emission spectrum of between 520-570 nm (FITC-A optical filter) which allows for the specific detection of fluorescent emission from reduced EroGFP in the transfected cells.

Assay [2] relates to mouse pancreatic β-cell line (MIN6). Put plainly: Cleaved caspase-3 immunoblot in MIN6 cells treated with tunicamycin and soluble MANF. Particulars: tunicamycin 1 μM, 24 hours; 0, 40 or 200 nM soluble MANF, FIG. 8. It counts as cell-based. The protocol:
FIG. 8 is an immunoblot showing the levels of cleaved caspase-3 in a murine pancreatic β-cell line (MIN6) untreated or treated for 24-hours with 1 μM tunicamycin or 100 nM thapsigargin, and further treated with 0, 40, or 200 nM soluble MANF.
Additional experiments were performed to determine whether soluble MANF would decrease or delay endoplasmic reticulum stress-induced apoptosis in pancreatic β-cells treated with an endoplasmic reticulum stress-inducing chemical agent.
(In general: In western blotting, separated proteins are transferred to a membrane and probed.)

B1: soluble MANF: soluble mammalian form of mesencephalic astrocyte-derived neurotrophic factor, e.g. human SEQ ID NO: 2; species of tested protein not stated (protein)
chain: LRPGDCEVCISYLGRFYQDLKDRDVTFSPATIENELIKFCREARGKENRLCYYIGATDDAATKIINEVSKPLAHHIPVEKICEKLKKKDSQICELKYDKQIDLSTVDLKKLRVKELKKILDDWGETCKGCAEKSDYIRKINELMPKYAPKAASARTDL
As to B1, in assay [1], the “Number of cells containing a detectable level of reduced MEROS-GFP” value is listed as “decrease in the number of cells containing a detectable level of reduced MEROS-GFP”. Also, in assay [2], the Caspase-3 cleavage result was “significantly reduced the amount of caspase-3 cleavage”.
